Assays:
6His-MAP kinase p38α = 6His-MAP kinase p38α (human); test: other, NMR titration 298K
[1] = target: T1, MAP kinase p38α (OH-p38α, non-phosphorylated) (human); test: other, biochemical kinase assay
[2] = target: T1, MAP kinase p38α (OH-p38α, …); test: SPR, inhibition in solution

T1 sequence (chain, as listed by the source): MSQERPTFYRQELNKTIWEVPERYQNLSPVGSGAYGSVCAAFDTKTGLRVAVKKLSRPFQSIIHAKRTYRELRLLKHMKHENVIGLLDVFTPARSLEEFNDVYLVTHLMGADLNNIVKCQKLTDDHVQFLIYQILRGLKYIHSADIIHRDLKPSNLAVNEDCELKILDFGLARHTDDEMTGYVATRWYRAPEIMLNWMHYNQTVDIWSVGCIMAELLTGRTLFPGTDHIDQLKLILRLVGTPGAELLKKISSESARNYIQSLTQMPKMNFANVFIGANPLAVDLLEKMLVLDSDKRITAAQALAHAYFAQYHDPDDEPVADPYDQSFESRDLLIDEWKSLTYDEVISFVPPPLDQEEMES
6His-MAP kinase p38α (human), sequence (chain, as listed by the source): as above

Kd (6His-MAP kinase p38α) [µM] | Ki [1] [µM] | Kd [2] [µM] | Binder
< 1 | 0.007 | 0.025 | HKSRALLIFQKIMWLRRQ [BB2702]
~250 |  |  | RKPDLRVVIPPSS [MEF2A peptide]
